Data reported in article PMC7145517.

How the values were obtained:
[1] = target: Myceliophteria thermophila RbBP5 β-propeller domain (residues 1-347); assay: ITC; settings: parent: 0.25
[2] = target: Myceliophteria thermophila RbBP5 β-propeller domain (residues 1-347) (Myceliophteria thermophila); assay: ITC; VP-ITC; CtCfp1 RID (350 μM) injected into MtRbBP5 β-propeller (35 μM); 20°C; 50 mM Tris pH 8.0, 200 mM NaCl, 2.5 mM β-mercaptoethanol

Chaetomium thermophilum Cfp1 RID domain (residues 322-508) Y380A
Kd [1]: 4.06 µM

Chaetomium thermophilum Cfp1 RID domain, Tyr380 substituted by an alanine (domain or fragment)
fold loss in binding against wild-type Cfp1 [2]: 20 fold
